# Test results: patent US20260116951A1 (DUCENTIS BIOTHERAPEUTICS, published 2026)
# T1: Recombinant Human CD200R, His-tagged (Creative Biomart CD200R1-320H) (human, UniProt Q8TD46 27-266)
# T1 construct: Bought; also called human CD200 receptor; not shown: His tag
# T1 sequence (looked up): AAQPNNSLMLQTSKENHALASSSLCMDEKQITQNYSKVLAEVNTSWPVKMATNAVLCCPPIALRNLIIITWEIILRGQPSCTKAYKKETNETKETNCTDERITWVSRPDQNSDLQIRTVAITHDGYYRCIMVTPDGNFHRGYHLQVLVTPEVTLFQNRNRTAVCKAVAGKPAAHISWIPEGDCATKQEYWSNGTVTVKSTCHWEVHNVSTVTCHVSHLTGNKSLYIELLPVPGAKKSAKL
# B1: DS-118 (mutated human CD200-Fc fusion protein, K130Y, I131Y, IgG4 S228P Fc) (Fc fusion)
# chain: QVQVVTQDEREQLYTPASLKCSLQNAQEALIVTWQKKKAVSPENMVTFSENHGVVIQPAYKDKINITQLGLQNSTITFWNITLEDEGCYMCLFNTFGFGYYSGTACLTVYVQPIVSLHYKFSEDHLNITCSATARPAPMVFWKVPRSGIENSTVTLSHPNGTTSVTSILHIKDPKNQVGKEVICQVLHLGTVTDFKQTVNKGPPCPPCPAPEFLGGPSVFLFPPKPKDTLMISRTPEVTCVVVDVSQEDPEVQFNWYVDGVEVHNAKTKPREEQFNSTYRVVSVLTVLHQDWLNGKEYKCKVSNKGLPSSIEKTISKAKGQPREPQVYTLPPSQEEMTKNQVSLTCLVKGFYPSDIAVEWESNGQPENNYKTTPPVLDSDGSFFLYSRLTVDKSRWQEGNVFSCSVMHEALHNHYTQKSLSLSLGK
# notes: also called mutated CD200-Fc; mutant CD200-Fc
# Experiments:
# [1] = molecular target: T1, Recombinant Human CD200R, His-tagged …; test: SPR
# From the text: (§1) Curves obtained were fitted to 1:1 Langmuir binding model by setting Rmax and RI as local parameters. Rate equations using standard parameters (e.g. ligand concentration, time) were used for iterative curve fitting. […] Means of 2 experiments carried out on the same day are shown with standard deviation. Residue numbering for CD200 proteins refers to the pre-protein, containing a signal peptide which is cleaved during insertion into the endoplasmic reticulum.
# [2] = molecular target: T1, Recombinant Human CD200R, His-tagged …; test: SPR, CD200R flowed over immobilized CD200-Fc, 25 C, 1:1 fit; reference is wild-type CD200-Fc DS-155
# Method: (§2) For human CD200 constructs: anti-human Fc (GE Healthcare) was covalently immobilized on a BIAcore CM5 sensor chip (Cytiva, BR100530) by amine coupling using a Cytiva kit (BR100839) following the manufacturer's instructions, targeting immobilization of 8,000-11,000 RU. CD200-Fc proteins were diluted to 0.5 μg/mL to 4 μg/mL in running Buffer (1×HBS-EP+pH7.4 (Cytiva BR100669), HEPES Buffered Saline pH 7.4 containing 3 mM EDTA and 0.05% v/v Surfactant P20) and flowed for 25 to 100 seconds at 10 μL/min over the immobilized Anti-Human IgG Fc, with a stabilization time of 60 seconds. Between 35 and 250 RUs of CD200-Fc were captured, with higher RUs used for cynomolgus CD200R binding experiments. […] Analysis temperature was 25° C. This was followed by regeneration of the surface with 30-90 second pulse of 3M MgCl₂ flowed at 30 L/min flow rate followed by stabilization of the surface with 60 second flow of running buffer.
# as §1
# [3] = molecular target: T2, Recombinant Cyno CD200R, His-tagged (Creative Biomart CD200R1-3483C) (cynomolgus monkey); test: SPR, cyno CD200R1 flowed over immobilized CD200-Fc, 25 C, 1:1 fit, mean of 2 experiments with standard deviation
# T2 construct: Bought; also called cynomolgus CD200R1; cynomolgus CD200R
# Method: as §2, §1
# [4] = molecular target: T1, Recombinant Human CD200R, His-tagged …; test: SPR, CD200R flowed over immobilized CD200-Fc, 25 C, 1:1 fit, mean of 2 experiments with standard deviation
# Method: as §2, §1
# [5] = molecular target: T1, Recombinant Human CD200R, His-tagged …; test: SPR, CD200R flowed over immobilized CD200-Fc, 25 C, 1:1 fit
# Method: as §2, §1
# [6] = molecular target: T2, Recombinant Cyno CD200R, His-tagged …; test: SPR (BIAcore), DS-118 captured (0.5 ug/mL), CynoCD200R1 flowed at 1000 nM to 62.5 nM, 25 C, 1:1 Binding model, run 2
# Method: as §2
# (§3) For mouse CD200 constructs, muCD200R-Fc (Creative Biomart CD200R1-458M) diluted to 1 μg/mL in running buffer was flowed over the immobilized Anti-Human IgG Fc, with CD200 monomers serially diluted and flowed over captured CD200R. Other details were as above. Data analysis: experimental sensorgrams were analyzed in BIAevaluation software (GE Healthcare). The curves obtained were fitted to 1:1 Langmuir binding model by setting Rmax and RI as local parameters. Rate equations using standard parameters (e.g. ligand concentration, time) were used for iterative curve fitting. Closeness of fit was determined by algorithms provided by the manufacturer in the BIAevaluation software, and data accepted if the Chi² value was less than 10% of Rₘₐₓ, and the U value was less than or equal to 15.
# [7] = molecular target: T2, Recombinant Cyno CD200R, His-tagged …; test: SPR, cyno CD200R1 flowed over immobilized CD200-Fc, 25 C, 1:1 fit
# Method: as §2, §1
# [8] = molecular target: T1, Recombinant Human CD200R, His-tagged …; test: SPR (BIAcore T200), CD200-Fc captured on anti-human Fc, CD200R flowed, 25 C, 1:1 fit, mean of two runs
# Method: The experiments were performed on a GE Healthcare BIAcore T200. Human, cynomolgus and mouse CD200R proteins were purchased from Creative Biomart (CD200R1-320H, CD200R1-3483C, CD200R1-3280M). All measurements were performed in duplicate.
# as §2, §3
# [9] = molecular target: T1, Recombinant Human CD200R, His-tagged …; test: SPR (BIAcore)
# Method: as §2, with “This was followed by regeneration of the surface with 30-90 second pulse of 3M MgCl₂ flowed at 30 L/min flow rate followed by stabilization of the surface with 60 second flow of running buffer.” left out
# as §3, with “Other details were as above.” left out, “The curves obtained were fitted to 1:1 Langmuir binding model by setting Rmax and RI as local parameters. Rate equations using standard parameters (e.g. ligand concentration, time) were used for iterative curve fitting.” left out
binder,measurement,setting,value
B1,fold increase in affinity from wild type,[1],> 130 fold
same,fold increase in affinity from wild type (DS-155),[2],> 130 fold
same,Kd,[3],206 nM
same,Kd,[4],1.3 nM
same,T1/2,[5],37.9 min
same,Kd,[6],204 nM
same,koff,[6],0.0596 s⁻¹
same,kon,[6],292000 M⁻¹ s⁻¹
same,T1/2,[7],0.303 min
same,Kd,[8],1.3 nM
same,koff,[8],0.000304 s⁻¹
same,kon,[8],231000 M⁻¹ s⁻¹
same,fold greater affinity than wild-type CD200-Fc (DS-155),[9],~137 fold
